Measured values taken from patent US20160145645.

Legend:
Assay in all cases: cell_activity
[1] = system: hSIRT ZFN pair (artificial); conditions: ZFN activity of the pair; assay conditions not given
[2] = system: ZFN pair targeting CHO NW_003618207.1 (artificial); conditions: indels in CHO K1 3 days post transfection, CEL-I or sequencing
[3] = system: ZFN pair targeting CHO Neu3 (artificial); conditions: indels in CHO K1 3 days post transfection, CEL-I or sequencing
[4] = system: ZFN pair targeting CHO Rosa26 (artificial); conditions: indels in CHO K1 3 days post transfection, CEL-I or sequencing
[5] = system: hRSK4 ZFN pair (artificial); conditions: ZFN activity of the pair; assay conditions not given

## ATCTTGCCTGATTTGTAAATACAAAGTTGACTGTGAA (double strand) [hSIRT ZFN recognition sequence]
[1]
  activity: 16.7%

## CHO NW_003618207.1 bp 12931-12970
[2]
  activity: 16%

## CHO Neu3 locus
[3]
  activity: 41%

## CHO Rosa26 locus
[4]
  activity: 31%

## GGCTCCTACTCTGTTTGCAAGCGATGCATACATGCAA (double strand) [hRSK4 ZFN recognition sequence]
[5]
  activity: 65.7%
